According to the supplement of paper PMC9170038:

Tested on: K4 kissing-loop RNA reporter
Assay: apparent KD of K4 kissing-loop reporter; higher = weaker reporter binding
Conditions: Eterna round: R107
Protocol: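 RNA-MaP round R107: designed RNA switches with theophylline, tryptophan, arginine or FMN aptamers are transcribed on-chip within common flanks. They are titrated with a labelled K4 kissing-loop RNA reporter in RNA-MaP buffer (100 mM Tris pH 7.5, 80 mM KCl, 4 mM MgCl2), without ligand or with the indicated ligand. Median apparent KD per design.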

[1] = input ligand: theophylline 20 uM
[2] = input ligand: tryptophan 2.4 mM
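Also: bound reporter read as fluorescence of individual clusters on recovered sequencing chips by microscopy, with normalized cluster intensities fitted with a binding model.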

Sequence | apparent KD of K4 kissing-loop reporter (input ligand: FMN 200 uM) | apparent KD of K4 kissing-loop reporter (input ligand: arginine 13.2 mM) | apparent KD of K4 kissing-loop reporter (input ligand: none) | apparent KD of K4 kissing-loop reporter [1] | apparent KD of K4 kissing-loop reporter [2]
GAAGUACAGGCGGCCGCCACUAGUGAUGUUAGUGAUAAAAGAUAUAGUAAAUAUCGGCAUGUAGAUAGGACCGGGCCUGAUGGAG [ggbgmullin] | 311 nM | 220 nM | 256 nM | 236 nM | 226 nM
AUCGUUGUCUGAGGAUAUCGUUUAACUGUAGUGAUGUUACAGAAAAUUCAUAUUAUAUUUUCUAUUCGAGAAGGCAGACUACGUA [JR_ExcFMNB_Sub016] | 172 nM | 133 nM | 135 nM | 123 nM | 138 nM
CGAAAUAGAACGGCCGCCACUGUAAGUCCUGACAGUAAGUGAUGUUUGAAAGAUUCGGGUAUUCGCAGGACCGGGUUCGUCAUAA [theeternabot_sameState_KL_Trp_B_13] | 886 nM | 844 nM | 1260 nM | 759 nM | 754 nM
GUCUCAAAAGAGGCAAGCACUCACGAGGACAAGGAUAUCAUAUCAAUGAGAAGGUGUCCUCGUCCUCAGUGAUGUUGAGGAGUGC [Omei KL FMN A SS E v4] | 410 nM | 200 nM | 247 nM | 233 nM | 257 nM
AGUGUUAGGUUAGAUACCAGCCGUCUGUGGAUAAUCCUCAGACCGCCAGUGAUGUUGGCAGGCCCUUGGCAGCUAACAGGACAGA [Mavebius] | 275 nM | 268 nM | 272 nM | 155 nM | 237 nM
UAAUAAUAAUGAUAAUAAUAAAGUGGUGGACGAGGACCGGUACGGCCGCCACUCGAAAAUGCAGUGAUGUUGUAAUACAAAUAAU [Exclusion - Tryptophan A (Freestyle 1)] | 110 nM | 203 nM | 137 nM | 200 nM | 86.6 nM
AAAAUAAUCCAGUGAUGUUGGUAUGCAGAUACCAGCGACGAAAGUCGCCCUUGGCAGCUGUGGACGUACAAAAUAAGUACGUCCU | 923 nM | 491 nM | 933 nM | 979 nM | 855 nM
AAGCAGUCACGCGAAGCCAUCGAAGAUGGCCGAGGACCGGUACGGCCGCCACUCGGAGUGAUGUUCCGAAGACUGCAAAAUAAAA | 370 nM | 386 nM | 417 nM | 468 nM | 252 nM
AUUCAUUUCAGAGGAUAUCGAUGGAGAGUGAUGUUCUCCCAUAGCCAGUGAUGUUGGCUAGCUAUUCGAGAAGGCUGUGGGUGGA [Same State FMN B GF 27] | 141 nM | 227 nM | 210 nM | 202 nM | 208 nM
GCAGUGAUGUUGCAACCGCGUACGAUGCCUCGAGGACCGGUACGGCCGCCACUCGUCCUGGUUCAGGAGCUACAGACAUAGCUCA [theeternabot_sameState_KL_Trp_A_2] | 563 nM | 271 nM | 781 nM | 408 nM | 291 nM
UUUAUAUAGUCGGCCGCCACUGAUUUUUUUAUAUGUUUAUGUUUAUACGAGUGAUGUUCGAUAUACAGGACCGGGACUUUUGUUA [JR_SSTryptoB_Sub018] | 186 nM | 237 nM | 238 nM | 294 nM | 180 nM
UGUAUGUGAUUUGAUACCAGACCAGGUGGAGGAAUCUGAGUGAUGUUCAGGUAGGUUUGGGUCCCUUGGCAGCAAAUCGCAUACU [KL-SSTheoB18] | 173 nM | 136 nM | 149 nM | 176 nM | 158 nM
AGUGGACGUGUCCGGAGUGAUGUUCCGGAUACCAGACACGAAAGUGUCCCUUGGCAGCCGGAGUGAUGUUCCGGCGUUCACUAAA [Omei KL Theo A Exc B v1] | 270 nM | 185 nM | 243 nM | 220 nM | 257 nM
AACGCUGGUGAAUAACACUAGCGAAAAUUCCGAGGACCGGUACGGCCGCCACUCGGCUAACUGCGAGUGAUGUUCGAUAAUAAAA [Mat - Mod of OpenEnded 3 - D9] | 80.3 nM | 183 nM | 109 nM | 189 nM | 60.2 nM
ACCUACCAUUAGUGAUGUUAAUGGACGGAAGGAGCGCGGAUAUCCGCAGGUAGGUCGCCGAAGGCUAGACAUUGUCUAGCCAUUA [AK1.2 SS Arginine A] | 225 nM | 186 nM | 196 nM | 166 nM | 182 nM
CGCGCGCGCUUGAGAGGGCGCGCGCGAAGUGAGGAUAUUUAGGGAGAAAGAAGGCACUAUAAAAUAUAGUGAUGUUAUAUAAGGG [SSFMNA.E] | 1180 nM | 240 nM | 468 nM | 2790 nM | 441 nM
ACGUGUCACUGAAGGAGCGUCUACCGAAUACGAGUGAUGUUGGUAUACCACUUAUAUAGUGGACAGGUAGGUCGCAGUGAUACGU [Arg B Ex t4] | 987 nM | 769 nM | 938 nM | 757 nM | 837 nM
AUUCGCUCCACUGAUACCAGUCAUCGAGCAAGAUGCUAAGCCAGUGAUGUUGGCAUGAAUGACCCUUGGCAGCAGUACACUAAGG [Theo B SS t7] | 65.4 nM | 106 nM | 75.6 nM | 113 nM | 60 nM
